Laboratory results reported in patent publication US10513713B2, “Modified host cells having tolerance to α-olefins” (priority 2014, dated 2019).
≈ marks a conversion by molar mass, not a printed value.

Tests used:
Format in all cases: cell-based
[1] = tested on: E. coli K12; experiment: microbe, parasite or virus in culture; details: Escherichia coli, K12, 2 h, read-out: toxic dose (concentration of compound that decreased growth by half)
Procedure: A: The olefin compounds were added to different concentrations as indicated to an E. coli K12 culture at an OD600=0.2. OD was monitored after 2 hour at 37° C. The bars represent standard deviation between duplicates B: A survival test in presence of 1-octene was performed. Six different dilutions of a culture (10 cells to 10^7 cells, left to right) of E. coli K12 were spotted in triplicate on an agar plate. […] Plates were incubated at room temperature for 2 days and then opened to allow evaporation of the olefin.
In this example, toxicity of olefin compounds was evaluated. A toxic dose was defined as the concentration of compound that decreased growth by half.

[2] = tested on: E. coli K12 wild type; experiment: Survival test in 1-hexene saturated atmosphere on over-production of AcrA, AcrB and TolC; details: FIG. 3
Procedure: Six different dilutions of cultures (10 cells to 10^7 cells, left to right on the picture) were spotted in triplicate on an agar plate.
For agar plate based assays, cells were first streaked overnight and few colonies were used to inoculate a preculture of 6 mL of LB-Cm with glucose (2 g/L) and arabinose (5 mM). At OD60=1 at 37° C., the cultures were used to prepare a dilution series. Dilution 0 (D0) corresponds to the OD600, =1, and contains ˜10^9 cells/mL. Dilution 1 (D1) is a 10-fold dilution of D0, dilution 2 (D2) a 10-fold dilution of D1 up to dilution 5 (D5), which contains ˜10^4 cells/mL. 10 μL of each dilution was spotted in triplicate on LB-agar plates (single well plates, Thermo Scientific, Waltham, Mass.) containing 30 mL of LB-agar, Cm (30 mg/L), glucose (2 g/L) and arabinose (5 mM). […] The agar plates were then inverted over the lid, cells facing the olefin compound, sealed with parafilm, placed in the plastic bag (the original packaging for the petri dishes) and incubated for 2 days at room temperature. For 1-octene, a second condition, via overlaying 2 mL of compound on the top of the agar submerging the cells, was used. TolC overexpression impact was examined using the same method, but in this case, the LB media and the LB-agar were also supplemented with ampicillin (100 mg/L) and IPTG (100 μM).

[3] = tested on: E. coli K12 ΔacrAB; experiment: Survival assay on agar plate in olefin saturated atmosphere, strains producing AcrAB or AcrB variants; details: 1-hexene saturated atmosphere; for tolerance to 1-hexene relative to wild type AcrB sequence: single mutation AcrB variants, FIG. 4A
Procedure: FIG. 2: impact of AcrAB production on growth, in presence of styrene 1-hexene, 1-octene and 1-nonene on cell growth. A: Different concentrations of styrene were added to an OD600=0.2 culture of E. coli K12 ΔacrAB containing the pABc (white) or the control plasmid p0c (black). OD density was monitored after 2 hours of growth at 37° C. The bars represent standard deviation between duplicates. B: A survival test in presence of 1-hexene, 1-octene, or 1-nonene saturated atmosphere was performed. Six different dilutions of cultures (10 cells to 10^7 cells, left to right on the figure) were spotted in triplicate on an agar plates. Plates were then exposed to the aforementioned chemicals.
FIG. 4: Impact of beneficial mutations on AcrB on tolerance to 1-hexene, A: Survival test of E. coli strain producing either the AcrB wild type or variants in a 1-hexene saturated atmosphere was performed. Two dilutions of cultures (Dilution 1: 10^5 cells and Dilution 2: 10^4 cells) were spotted in triplicate on an agar plate. B: Localization of the 6 beneficial mutations represented on the structure of a single monomer of AcrB or C: on the structure of the AcrB trimer.
FIG. 6: Impact of beneficial mutations on AcrB on tolerance to 1-hexene. A: Survival test of E. coli strain producing either the AcrB Wild type or variants with 1, 2 or several beneficial mutations, in an 1-hexene saturated atmosphere was performed. Two dilutions of cultures (Dilution 2: 10^4 cells and Dilution 3: 10^3 cells) were spotted in triplicate on an agar plate. B: Soluble fraction of total proteins from a culture of strains producing either the wild type, either the variant F617L, either the variant 6 (A279T, Q584R, F617L) were analyzed by western blot using anti-His antibody.
For agar plate based assays, cells were first streaked overnight and few colonies were used to inoculate a preculture of 6 mL of LB-Cm with glucose (2 g/L) and arabinose (5 mM). At OD60=1 at 37° C., the cultures were used to prepare a dilution series. Dilution 0 (D0) corresponds to the OD600, =1, and contains ˜10^9 cells/mL. Dilution 1 (D1) is a 10-fold dilution of D0, dilution 2 (D2) a 10-fold dilution of D1 up to dilution 5 (D5), which contains ˜10^4 cells/mL. 10 μL of each dilution was spotted in triplicate on LB-agar plates (single well plates, Thermo Scientific, Waltham, Mass.) containing 30 mL of LB-agar, Cm (30 mg/L), glucose (2 g/L) and arabinose (5 mM). Small containers (microfuge tube lids) were placed on the open lid of the agar plate and filled with 400 to 600 μL of 1-hexene or 1-octene or with 75 μL of 1-nonene. The agar plates were then inverted over the lid, cells facing the olefin compound, sealed with parafilm, placed in the plastic bag (the original packaging for the petri dishes) and incubated for 2 days at room temperature. For 1-octene, a second condition, via overlaying 2 mL of compound on the top of the agar submerging the cells, was used. TolC overexpression impact was examined using the same method, but in this case, the LB media and the LB-agar were also supplemented with ampicillin (100 mg/L) and IPTG (100 μM). […]

## C=CCCCC [1-hexene]
[1]
  IC50: 65 µg/mL (≈ 772 µM)

## C=Cc1ccccc1 [styrene]
[1]
  IC50: 110 µg/mL (≈ 1060 µM)

## acrA and acrB and TolC: E. coli tripartite RND efflux pump AcrAB-TolC, over-expressed from pABc and pTolCa
[2]
  tolerance to 1-hexene on over-expression in the wild type strain: increased tolerance

B1: L822P: E. coli AcrB (SEQ ID NO:1) variant with amino acid mutation L822P (protein)
chain: MPNFFIDRPIFAWVIAIIIMLAGGLAILKLPVAQYPTIAPPAVTISASYPGADAKTVQDTVTQVIEQNMNGIDNLMYMSSNSDSTGTVQITLTFESGTDADIAQVQVQNKLQLAMPLLPQEVQQQGVSVEKSSSSFLMVVGVINTDGTMTQEDISDYVAANMKDAISRTSGVGDVQLFGSQYAMRIWMNPNELNKFQLTPVDVITAIKAQNAQVAAGQLGGTPPVKGQQLNASIIAQTRLTSTEEFGKILLKVNQDGSRVLLRDVAKIELGGENYDIIAEFNGQPASGLGIKLATGANALDTAAAIRAELAKMEPFFPSGLKIVYPYDTTPFVKISIHEVVKTLVEAIILVFLVMYLFLQNFRATLIPTIAVPVVLLGTFAVLAAFGFSINTLTMFGMVLAIGLLVDDAIVVVENVERVMAEEGLPPKEATRKSMGQIQGALVGIAMVLSAVFVPMAFFGGSTGAIYRQFSITIVSAMALSVLVALILTPALCATMLKPIAKGDHGEGKKGFFGWFNRMFEKSTHHYTDSVGGILRSTGRYLVLYLIIVVGMAYLFVRLPSSFLPDEDQGVFMTMVQLPAGATQERTQKVLNEVTHYYLTKEKNNVESVFAVNGFGFAGRGQNTGIAFVSLKDWADRPGEENKVEAITMRATRAFSQIKDAMVFAFNLPAIVELGTATGFDFELIDQAGLGHEKLTQARNQLLAEAAKHPDMLTSVRPNGLEDTPQFKIDIDQEKAQALGVSINDINTTLGAAWGGSYVNDFIDRGRVKKVYVMSEAKYRMLPDDIGDWYVRAADGQMVPFSAFSSSRWEYGSPRLERYNGPPSMEILGQAAPGKSTGEAMELMEQLASKLPTGVGYDWTGMSYQERLSGNQAPSLYAISLIVVFLCLAALYESWSIPFSVMLVVPLGVIGALLAATFRGLTNDVYFQVGLLTTIGLSAKNAILIVEFAKDLMDKEGKGLIEATLDAVRMRLRPILMTSLAFILGVMPLVISTGAGSGAQNAVGTGVMGGMVTATVLAIFFVPVFFVVVRRRFSRKNEDIEHSHTVDHH
modifications: E. coli
[3]
  efficiency among the beneficial mutations: more efficient
  tolerance to 1-hexene relative to wild type AcrB sequence: improvement in tolerance

B2: F1033Y: E. coli AcrB (SEQ ID NO:1) variant with amino acid mutation F1033Y (protein)
chain: MPNFFIDRPIFAWVIAIIIMLAGGLAILKLPVAQYPTIAPPAVTISASYPGADAKTVQDTVTQVIEQNMNGIDNLMYMSSNSDSTGTVQITLTFESGTDADIAQVQVQNKLQLAMPLLPQEVQQQGVSVEKSSSSFLMVVGVINTDGTMTQEDISDYVAANMKDAISRTSGVGDVQLFGSQYAMRIWMNPNELNKFQLTPVDVITAIKAQNAQVAAGQLGGTPPVKGQQLNASIIAQTRLTSTEEFGKILLKVNQDGSRVLLRDVAKIELGGENYDIIAEFNGQPASGLGIKLATGANALDTAAAIRAELAKMEPFFPSGLKIVYPYDTTPFVKISIHEVVKTLVEAIILVFLVMYLFLQNFRATLIPTIAVPVVLLGTFAVLAAFGFSINTLTMFGMVLAIGLLVDDAIVVVENVERVMAEEGLPPKEATRKSMGQIQGALVGIAMVLSAVFVPMAFFGGSTGAIYRQFSITIVSAMALSVLVALILTPALCATMLKPIAKGDHGEGKKGFFGWFNRMFEKSTHHYTDSVGGILRSTGRYLVLYLIIVVGMAYLFVRLPSSFLPDEDQGVFMTMVQLPAGATQERTQKVLNEVTHYYLTKEKNNVESVFAVNGFGFAGRGQNTGIAFVSLKDWADRPGEENKVEAITMRATRAFSQIKDAMVFAFNLPAIVELGTATGFDFELIDQAGLGHEKLTQARNQLLAEAAKHPDMLTSVRPNGLEDTPQFKIDIDQEKAQALGVSINDINTTLGAAWGGSYVNDFIDRGRVKKVYVMSEAKYRMLPDDIGDWYVRAADGQMVPFSAFSSSRWEYGSPRLERYNGLPSMEILGQAAPGKSTGEAMELMEQLASKLPTGVGYDWTGMSYQERLSGNQAPSLYAISLIVVFLCLAALYESWSIPFSVMLVVPLGVIGALLAATFRGLTNDVYFQVGLLTTIGLSAKNAILIVEFAKDLMDKEGKGLIEATLDAVRMRLRPILMTSLAFILGVMPLVISTGAGSGAQNAVGTGVMGGMVTATVLAIFFVPVFFVVVRRRYSRKNEDIEHSHTVDHH
modifications: E. coli
[3]
  tolerance to 1-hexene relative to wild type AcrB sequence: improvement in tolerance

B3: F927S: E. coli AcrB (SEQ ID NO:1) variant with amino acid mutation F927S (protein)
chain: MPNFFIDRPIFAWVIAIIIMLAGGLAILKLPVAQYPTIAPPAVTISASYPGADAKTVQDTVTQVIEQNMNGIDNLMYMSSNSDSTGTVQITLTFESGTDADIAQVQVQNKLQLAMPLLPQEVQQQGVSVEKSSSSFLMVVGVINTDGTMTQEDISDYVAANMKDAISRTSGVGDVQLFGSQYAMRIWMNPNELNKFQLTPVDVITAIKAQNAQVAAGQLGGTPPVKGQQLNASIIAQTRLTSTEEFGKILLKVNQDGSRVLLRDVAKIELGGENYDIIAEFNGQPASGLGIKLATGANALDTAAAIRAELAKMEPFFPSGLKIVYPYDTTPFVKISIHEVVKTLVEAIILVFLVMYLFLQNFRATLIPTIAVPVVLLGTFAVLAAFGFSINTLTMFGMVLAIGLLVDDAIVVVENVERVMAEEGLPPKEATRKSMGQIQGALVGIAMVLSAVFVPMAFFGGSTGAIYRQFSITIVSAMALSVLVALILTPALCATMLKPIAKGDHGEGKKGFFGWFNRMFEKSTHHYTDSVGGILRSTGRYLVLYLIIVVGMAYLFVRLPSSFLPDEDQGVFMTMVQLPAGATQERTQKVLNEVTHYYLTKEKNNVESVFAVNGFGFAGRGQNTGIAFVSLKDWADRPGEENKVEAITMRATRAFSQIKDAMVFAFNLPAIVELGTATGFDFELIDQAGLGHEKLTQARNQLLAEAAKHPDMLTSVRPNGLEDTPQFKIDIDQEKAQALGVSINDINTTLGAAWGGSYVNDFIDRGRVKKVYVMSEAKYRMLPDDIGDWYVRAADGQMVPFSAFSSSRWEYGSPRLERYNGLPSMEILGQAAPGKSTGEAMELMEQLASKLPTGVGYDWTGMSYQERLSGNQAPSLYAISLIVVFLCLAALYESWSIPFSVMLVVPLGVIGALLAATFRGLTNDVYSQVGLLTTIGLSAKNAILIVEFAKDLMDKEGKGLIEATLDAVRMRLRPILMTSLAFILGVMPLVISTGAGSGAQNAVGTGVMGGMVTATVLAIFFVPVFFVVVRRRFSRKNEDIEHSHTVDHH
modifications: E. coli
[3]
  tolerance to 1-hexene relative to wild type AcrB sequence: improvement in tolerance

B4: TolC: outer membrane protein TolC encoded on plasmid pTolCa (protein, UniProt P02930 23-493, looked up)
Outer membrane protein TolC: ENLMQVYQQARLSNPELRKSAADRDAAFEKINEARSPLLPQLGLGADYTYSNGYRDANGINSNATSASLQLTQSIFDMSKWRALTLQEKAAGIQDVTYQTDQQTLILNTATAYFNVLNAIDVLSYTQAQKEAIYRQLDQTTQRFNVGLVAITDVQNARAQYDTVLANEVTARNNLDNAVEQLRQITGNYYPELAALNVENFKTDKPQPVNALLKEAEKRNLSLLQARLSQDLAREQIRQAQDGHLPTLDLTASTGISDTSYSGSKTRGAAGTQYDDSNMGQNKVGLSFSLPIYQGGMVNSQVKQAQYNFVGASEQLESAHRSVVQTVRSSFNNINASISSINAYKQAVVSAQSSLDAMEAGYSVGTRTIVDVLDATTTLYNAKQELANARYNYLINQLNIKSALGTLNEQDLLALNNALSKPVSTNPENVAPQTPEQNAIADGYAPDSPAPVVQQTSARTTTSNGHNPFRN
[2]
  tolerance to 1-hexene on over-expression in the wild type strain: does not improve the survival
